# T1: FcγRIIa H (FcγRIIa type H, His at position 131), extracellular domain with C-terminal His tag (human, UniProt P12318 34-217)
# T1 construct: extracellular domain; also called 2aH; FcgRIIa H; not shown: His tag at the C terminus
# T1 sequence (looked up): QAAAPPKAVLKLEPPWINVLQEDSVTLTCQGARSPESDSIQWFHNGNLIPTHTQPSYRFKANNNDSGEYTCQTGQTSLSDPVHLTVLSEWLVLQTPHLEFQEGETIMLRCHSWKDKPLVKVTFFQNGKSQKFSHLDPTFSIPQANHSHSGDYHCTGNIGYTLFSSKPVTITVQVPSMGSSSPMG
# T2: FcγRIIb, extracellular domain with C-terminal His tag (human, UniProt P31994 43-217)
# T2 construct: extracellular domain; also called 2b; FcgRIIb; not shown: His tag at the C terminus
# T2 sequence (looked up): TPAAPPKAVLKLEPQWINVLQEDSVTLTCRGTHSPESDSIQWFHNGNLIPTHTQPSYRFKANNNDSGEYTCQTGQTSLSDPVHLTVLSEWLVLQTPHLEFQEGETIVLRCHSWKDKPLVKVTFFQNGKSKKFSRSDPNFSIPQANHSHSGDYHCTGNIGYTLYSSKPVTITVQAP
# Experiments:
# [1] = biological target: T1, FcγRIIa H (FcγRIIa type H, His at …); experiment: ratio of He/Con_2aH (FcγRIIa H) to He/Con_2b (FcγRIIb), SPR relative binding
# Procedure: (§1) The heterodimerized antibodies He Abs in which one of the H chains was introduced with an alteration were assayed for their binding activities to each activating FcγR and inhibitory FcγR according to the method described in Example 4. […] The activating FcγRs in FIGS. 26, 27, 28, and 29 are FcγRIa, FcγRIIa (R), FcγRIIa (H), and FcγRIIIa, respectively.
# (§2) Analysis of interaction between objective antibody and the FcγR was carried out using Biacore T100 (GE Healthcare). HBS-EP+ (GE Healthcare) was used as the running buffer, and the measurement temperature was set to 25° C. Chips produced by immobilizing the antigen peptide by the amine coupling method to a Series S Sencor Chip CM5 (GE Healthcare), or alternatively, chips produced by allowing preliminarily biotinylated antigen peptides to interact with and immobilize onto a Series S Sensor Chip SA (certified) (GE Healthcare) were used. Antibodies of interest were captured onto an antigen peptide-immobilized chip, and allowed to interact to each FcγR diluted with running buffer. To regenerate and repeatedly use the chip, the antibodies captured on the chip were washed off by reacting 10 mM glycine-HCl, pH 1.5.
# [2] = biological target: T1, FcγRIIa H (FcγRIIa type H, His at …); experiment: SPR (Biacore), antibody captured on antigen-peptide chip, FcγR as analyte; GpH7-A5/GpH7-B3/GpL16-k0 = 100
# Procedure: as §1, §2
# [3] = biological target: T2, FcγRIIb, extracellular domain with …; experiment: as above
# Procedure: as §1, §2
Binder,He_2aH/2b (IIaH/IIb ratio) [1],He/Con_2aH (relative binding activity) [2],He/Con_2b (relative binding activity) [3]
"GpH7-A5/GpH7-B3 variant V266_01G/GpL16-k0 (antibody, human IgG1, kappa, Heterodimerized IgG1 (He Ab); mutation only in the GpH7-B3 chain; also called He Ab V266G) heavy 1: not shown heavy 2: not shown light: DIVMTQSPLSLPVTPGEPASISCQASESLVHSNRNTYLHWYLQKPGQSPQLLIYKVSNRFSGVPDRFSGSGSGTDFTLKISRVEAEDVGVYYCSQNTHVPPTFGQGTKVEIERTVAAPSVFIFPPSDEQLKSGTASVVCLLNNFYPREAKVQWKVDNALQSGNSQESVTEQDSKDSTYSLSSTLTLSKADYEKHKVYACEVTHQGLSSPVTKSFNRGEC",0.71,36.7 % of control,51.5 % of control
"GpH7-A5/GpH7-B3 variant S239_09D/GpL16-k0 (antibody, human IgG1, kappa, Heterodimerized IgG1 (He Ab); mutation only in the GpH7-B3 chain; also called He Ab S239D) heavy 1: not shown heavy 2: not shown light: DIVMTQSPLSLPVTPGEPASISCQASESLVHSNRNTYLHWYLQKPGQSPQLLIYKVSNRFSGVPDRFSGSGSGTDFTLKISRVEAEDVGVYYCSQNTHVPPTFGQGTKVEIERTVAAPSVFIFPPSDEQLKSGTASVVCLLNNFYPREAKVQWKVDNALQSGNSQESVTEQDSKDSTYSLSSTLTLSKADYEKHKVYACEVTHQGLSSPVTKSFNRGEC",0.56,114 % of control,206 % of control
"GpH7-A5/GpH7-B3 variant S239_18N/GpL16-k0 (antibody, human IgG1, kappa, Heterodimerized IgG1 (He Ab); mutation only in the GpH7-B3 chain; also called He Ab S239N) heavy 1: not shown heavy 2: not shown light: DIVMTQSPLSLPVTPGEPASISCQASESLVHSNRNTYLHWYLQKPGQSPQLLIYKVSNRFSGVPDRFSGSGSGTDFTLKISRVEAEDVGVYYCSQNTHVPPTFGQGTKVEIERTVAAPSVFIFPPSDEQLKSGTASVVCLLNNFYPREAKVQWKVDNALQSGNSQESVTEQDSKDSTYSLSSTLTLSKADYEKHKVYACEVTHQGLSSPVTKSFNRGEC",0.79,94.2 % of control,119 % of control
"GpH7-A5/GpH7-B3 variant V266_07I/GpL16-k0 (antibody, human IgG1, kappa, Heterodimerized IgG1 (He Ab); mutation only in the GpH7-B3 chain; also called He Ab V266I) heavy 1: not shown heavy 2: not shown light: DIVMTQSPLSLPVTPGEPASISCQASESLVHSNRNTYLHWYLQKPGQSPQLLIYKVSNRFSGVPDRFSGSGSGTDFTLKISRVEAEDVGVYYCSQNTHVPPTFGQGTKVEIERTVAAPSVFIFPPSDEQLKSGTASVVCLLNNFYPREAKVQWKVDNALQSGNSQESVTEQDSKDSTYSLSSTLTLSKADYEKHKVYACEVTHQGLSSPVTKSFNRGEC",0.69,106 % of control,152 % of control
"GpH7-A5/GpH7-B3 variant V266_04F/GpL16-k0 (antibody, human IgG1, kappa, Heterodimerized IgG1 (He Ab); mutation only in the GpH7-B3 chain; also called He Ab V266F) heavy 1: not shown heavy 2: not shown light: DIVMTQSPLSLPVTPGEPASISCQASESLVHSNRNTYLHWYLQKPGQSPQLLIYKVSNRFSGVPDRFSGSGSGTDFTLKISRVEAEDVGVYYCSQNTHVPPTFGQGTKVEIERTVAAPSVFIFPPSDEQLKSGTASVVCLLNNFYPREAKVQWKVDNALQSGNSQESVTEQDSKDSTYSLSSTLTLSKADYEKHKVYACEVTHQGLSSPVTKSFNRGEC",0.44,25.3 % of control,57.6 % of control
"GpH7-A5/GpH7-B3 variant S239_10E/GpL16-k0 (antibody, human IgG1, kappa, Heterodimerized IgG1 (He Ab); mutation only in the GpH7-B3 chain; also called He Ab S239E) heavy 1: not shown heavy 2: not shown light: DIVMTQSPLSLPVTPGEPASISCQASESLVHSNRNTYLHWYLQKPGQSPQLLIYKVSNRFSGVPDRFSGSGSGTDFTLKISRVEAEDVGVYYCSQNTHVPPTFGQGTKVEIERTVAAPSVFIFPPSDEQLKSGTASVVCLLNNFYPREAKVQWKVDNALQSGNSQESVTEQDSKDSTYSLSSTLTLSKADYEKHKVYACEVTHQGLSSPVTKSFNRGEC",0.62,112 % of control,181 % of control
"GpH7-A5/GpH7-B3 variant V266_06M/GpL16-k0 (antibody, human IgG1, kappa, Heterodimerized IgG1 (He Ab); mutation only in the GpH7-B3 chain; also called He Ab V266M) heavy 1: not shown heavy 2: not shown light: DIVMTQSPLSLPVTPGEPASISCQASESLVHSNRNTYLHWYLQKPGQSPQLLIYKVSNRFSGVPDRFSGSGSGTDFTLKISRVEAEDVGVYYCSQNTHVPPTFGQGTKVEIERTVAAPSVFIFPPSDEQLKSGTASVVCLLNNFYPREAKVQWKVDNALQSGNSQESVTEQDSKDSTYSLSSTLTLSKADYEKHKVYACEVTHQGLSSPVTKSFNRGEC",0.33,83.9 % of control,251 % of control
"GpH7-A5/GpH7-B3 variant S239_08L/GpL16-k0 (antibody, human IgG1, kappa, Heterodimerized IgG1 (He Ab); mutation only in the GpH7-B3 chain; also called He Ab S239L) heavy 1: not shown heavy 2: not shown light: DIVMTQSPLSLPVTPGEPASISCQASESLVHSNRNTYLHWYLQKPGQSPQLLIYKVSNRFSGVPDRFSGSGSGTDFTLKISRVEAEDVGVYYCSQNTHVPPTFGQGTKVEIERTVAAPSVFIFPPSDEQLKSGTASVVCLLNNFYPREAKVQWKVDNALQSGNSQESVTEQDSKDSTYSLSSTLTLSKADYEKHKVYACEVTHQGLSSPVTKSFNRGEC",0.75,105 % of control,140 % of control
"GpH7-A5/GpH7-B3 variant S239_20W/GpL16-k0 (antibody, human IgG1, kappa, Heterodimerized IgG1 (He Ab); mutation only in the GpH7-B3 chain; also called He Ab S239W) heavy 1: not shown heavy 2: not shown light: DIVMTQSPLSLPVTPGEPASISCQASESLVHSNRNTYLHWYLQKPGQSPQLLIYKVSNRFSGVPDRFSGSGSGTDFTLKISRVEAEDVGVYYCSQNTHVPPTFGQGTKVEIERTVAAPSVFIFPPSDEQLKSGTASVVCLLNNFYPREAKVQWKVDNALQSGNSQESVTEQDSKDSTYSLSSTLTLSKADYEKHKVYACEVTHQGLSSPVTKSFNRGEC",0.78,35.2 % of control,45.1 % of control
"GpH7-A5/GpH7-B3 variant S239_05P/GpL16-k0 (antibody, human IgG1, kappa, Heterodimerized IgG1 (He Ab); mutation only in the GpH7-B3 chain; also called He Ab S239P) heavy 1: not shown heavy 2: not shown light: DIVMTQSPLSLPVTPGEPASISCQASESLVHSNRNTYLHWYLQKPGQSPQLLIYKVSNRFSGVPDRFSGSGSGTDFTLKISRVEAEDVGVYYCSQNTHVPPTFGQGTKVEIERTVAAPSVFIFPPSDEQLKSGTASVVCLLNNFYPREAKVQWKVDNALQSGNSQESVTEQDSKDSTYSLSSTLTLSKADYEKHKVYACEVTHQGLSSPVTKSFNRGEC",0.33,33.3 % of control,102 % of control

# The next lines start with the values.
He_2aH/2b (IIaH/IIb ratio) [1],He/Con_2aH (relative binding activity) [2],He/Con_2b (relative binding activity) [3],Binder
0.66,10.1 % of control,15.2 % of control,"GpH7-A5/GpH7-B3 variant V266_10E/GpL16-k0 (antibody, human IgG1, kappa, Heterodimerized IgG1 (He Ab); mutation only in the GpH7-B3 chain; also called He Ab V266E) heavy 1: not shown heavy 2: not shown light: DIVMTQSPLSLPVTPGEPASISCQASESLVHSNRNTYLHWYLQKPGQSPQLLIYKVSNRFSGVPDRFSGSGSGTDFTLKISRVEAEDVGVYYCSQNTHVPPTFGQGTKVEIERTVAAPSVFIFPPSDEQLKSGTASVVCLLNNFYPREAKVQWKVDNALQSGNSQESVTEQDSKDSTYSLSSTLTLSKADYEKHKVYACEVTHQGLSSPVTKSFNRGEC"
0.44,104 % of control,236 % of control,"GpH7-A5/GpH7-B3 variant V266_08L/GpL16-k0 (antibody, human IgG1, kappa, Heterodimerized IgG1 (He Ab); mutation only in the GpH7-B3 chain; also called He Ab V266L) heavy 1: not shown heavy 2: not shown light: DIVMTQSPLSLPVTPGEPASISCQASESLVHSNRNTYLHWYLQKPGQSPQLLIYKVSNRFSGVPDRFSGSGSGTDFTLKISRVEAEDVGVYYCSQNTHVPPTFGQGTKVEIERTVAAPSVFIFPPSDEQLKSGTASVVCLLNNFYPREAKVQWKVDNALQSGNSQESVTEQDSKDSTYSLSSTLTLSKADYEKHKVYACEVTHQGLSSPVTKSFNRGEC"
0.63,6.4 % of control,10.1 % of control,"GpH7-A5/GpH7-B3 variant V266_09D/GpL16-k0 (antibody, human IgG1, kappa, Heterodimerized IgG1 (He Ab); mutation only in the GpH7-B3 chain; also called He Ab V266D) heavy 1: not shown heavy 2: not shown light: DIVMTQSPLSLPVTPGEPASISCQASESLVHSNRNTYLHWYLQKPGQSPQLLIYKVSNRFSGVPDRFSGSGSGTDFTLKISRVEAEDVGVYYCSQNTHVPPTFGQGTKVEIERTVAAPSVFIFPPSDEQLKSGTASVVCLLNNFYPREAKVQWKVDNALQSGNSQESVTEQDSKDSTYSLSSTLTLSKADYEKHKVYACEVTHQGLSSPVTKSFNRGEC"
-1.05,1.1 % of control,-1.1 % of control,"GpH7-A5/GpH7-B3 variant V266_12R/GpL16-k0 (antibody, human IgG1, kappa, Heterodimerized IgG1 (He Ab); mutation only in the GpH7-B3 chain; also called He Ab V266R) heavy 1: not shown heavy 2: not shown light: DIVMTQSPLSLPVTPGEPASISCQASESLVHSNRNTYLHWYLQKPGQSPQLLIYKVSNRFSGVPDRFSGSGSGTDFTLKISRVEAEDVGVYYCSQNTHVPPTFGQGTKVEIERTVAAPSVFIFPPSDEQLKSGTASVVCLLNNFYPREAKVQWKVDNALQSGNSQESVTEQDSKDSTYSLSSTLTLSKADYEKHKVYACEVTHQGLSSPVTKSFNRGEC"
0.5,27 % of control,54.4 % of control,"GpH7-A5/GpH7-B3 variant V266_13S/GpL16-k0 (antibody, human IgG1, kappa, Heterodimerized IgG1 (He Ab); mutation only in the GpH7-B3 chain; also called He Ab V266S) heavy 1: not shown heavy 2: not shown light: DIVMTQSPLSLPVTPGEPASISCQASESLVHSNRNTYLHWYLQKPGQSPQLLIYKVSNRFSGVPDRFSGSGSGTDFTLKISRVEAEDVGVYYCSQNTHVPPTFGQGTKVEIERTVAAPSVFIFPPSDEQLKSGTASVVCLLNNFYPREAKVQWKVDNALQSGNSQESVTEQDSKDSTYSLSSTLTLSKADYEKHKVYACEVTHQGLSSPVTKSFNRGEC"

# Source: patent publication US20180155451A1 (published 2018)
